Reference: paper PMC2995173

Target: HA-Rad18 S-Box-A (human) (UniProt Q9NS91)
Test: co-IP

DNA Polymerase eta (Polη) (from UniProt Q9Y253 1-713) (natural protein)
percent reduction of association relative to Rad18 WT (UV-treated cells): > 80%
